Experimental data from the Human Domainome abundance scans (Beltran et al. 2025).

B1: Histone H1t, residues 44 to 112; numbered along this chain, P22492 (parent)
chain: VSKLITEALSVSQERVGMSLVALKKALAAAGYDVEKNNSRIKLSLKSLVNKGILVQTRGTGASGSFKLS

Variants of: B1
Assay: abundance fitness (aPCA) (normalised: wild type 0, dead -1); higher = more abundant; growth selection in yeast, the domain comes from the species named
Settings: Homo sapiens

Abundance fitness: each site, then its substitutions
R40: Q 0.024 | S -0.404 | H -0.094 | V -0.396 | K 0.128 | N -0.165 | A 0.091 | M -0.215 | L -0.097 | E -0.036 | P -0.444 | G -0.372 | T -0.085
V34: G -0.306 | M -0.098 | T -0.068 | I -0.123 | C -0.179 | Y -0.472 | H -0.4 | Q -0.309 | K -0.104 | L -0.214 | E -0.346 | R -0.268 | P -0.212 | A -0.171 | D -0.327 | W -0.252 | S -0.199
S47: W -0.143 | H -0.13 | I -0.587 | E 0.232 | Q 0.02 | L -0.228 | Y -0.23 | M -0.05 | F -0.41 | G -0.465 | R -0.087 | N -0.156 | D -0.07 | V -0.307 | C 0.036 | K -0.191 | A -0.049 | T 0.01
G31: F -0.285 | T -0.259 | V -0.149 | Y -0.066 | H -0.366 | R -0.306 | P -0.434 | I -0.316 | L -0.297 | Q -0.268 | S -0.264 | W -0.387 | M -0.224 | N -0.357
K51: E 0.016 | N -0.081 | S -0.161 | H -0.289 | Y -1.1 | V -0.481 | M -0.258 | Q -0.065 | P -0.323 | T -0.212 | W -0.557 | R 0.132 | A -0.164 | D -0.383 | F -0.557 | L -0.281 | G -0.322
Y32: K 0.064 | N -0.114 | S -0.14 | H -0.052 | W -0.116 | Q -0.121 | L 0.032 | I 0.022 | P -0.228 | R -0.055 | T -0.193 | F -0.072 | C -0.391
V49: M 0.062 | P -0.434 | I -0.026 | S -0.423 | Q -0.323 | D -0.416 | L 0.052 | K -0.173 | W -0.495 | A -0.336 | Y -0.135 | F -0.056 | N -0.54 | H -0.432 | R -0.262
N38: T 0.109 | Q -0.058 | K -0.124 | W 0.105 | I -0.162 | D -0.632 | A 0.106 | G -0.122 | P -0.168 | R -0.393 | M 0.084 | H -0.405 | V 0.047 | L 0.048 | E -0.061 | S 0.044
N50: P -0.076 | V -0.388 | C -0.311 | K -0.108 | Y -0.092 | Q 0.066 | F -1.1 | S 0.092 | W -0.827 | T 0.018 | M -0.394 | H -0.24 | G -0.099 | R -0.082 | A -0.037 | E 0.027 | D -0.105 | I -0.398 | L -0.312
L45: R -0.915 | A -0.643 | C -0.425 | Q -0.782 | F -0.372 | W -0.125 | V -0.141 | N -0.897 | P -0.46 | E -0.978 | S -0.742 | I -0.417 | M -0.386 | T -0.63 | H -1.2 | K -0.859 | G -0.574
N37: H 0.093 | F -0.178 | P -0.173 | S -0.013 | W -0.083 | G -0.091 | I 0.148 | R 0.077
